The source of these data is the nanobody polyreactivity screen of Harvey et al. (2022).

A short description of this data set: yeast display, Sf9 membrane polyspecificity reagent, FACS + sequencing; frameworks hold sequencing errors. In a few lines: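 Nanobodies from a synthetic yeast display library (Saccharomyces cerevisiae BJ5465), induced 36–48 hours with galactose, were stained 1 hour at 4 °C with 10% biotinylated, detergent-solubilized Sf9 membrane reagent, enriched on streptavidin microbeads, then FACS-sorted. Anti-HA (expression) and streptavidin (reagent binding) fluorescence set low and high (top ~1%) gates. Polyreactivity labels come from the gate of origin. Genes were colony-PCR amplified, MiSeq 2 × 250 sequenced and filtered by CDR length.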
On to “QVQLVESGGGLVQAGGSLRLSCAASGRTFYYYAMGWYRQAPGKERELVAAISRSGGITYYADSVKGRFTISRDNAKNTVYLQMNSLKPEDTAVYYCAADAWFSLRYAPRSYAYGYWGQGTQVTVSS”, for which the “polyreactivity (PSR sort gate)” value was “low polyreactivity”.

On to “QVQLVESGGGLVQAGGSLRLSCAASGRTFYYYAMGWYRQAPGKERELVAAITGSGANTYYADSVKGRFTISRDNAKNTVYLQMKSLKPEDTAVYYCNKYRTLRNGWGSGYYYWGQGTQVTVSS”, for which the “polyreactivity (PSR sort gate)” value is “high polyreactivity”.

With “QVQLVESGGGLVQAGGSLRLSCAASGRTFYYYAMGWYRQAPGKERELVAGINSGGSTNYADSVKGRFTISRDNAKNTVYLQMNSLKPEDTAVYYCAVEDLVSEGWGWYKEMDYWGQGTQVTVSS”, the “polyreactivity (PSR sort gate)” value is “low polyreactivity”.

In the case of “QVQLVESGGGLVQAGGSLRLSCAASGRTFYYYAMGWYRQAPGKERELVARIRSTGRTSYADSVKGRFTISRDNAKNTVYLQMNRLKPEDTAVYYCAAKYSSTAWSRRKFDYWGQGTQVTVSS”, the “polyreactivity (PSR sort gate)” value is listed as “high polyreactivity”.

Take “QVQLVESGGGLVQAGGSLRLSCAASGRTFYYYAMGWYRQAPGKERELVASISRRGGSTYYADSVKGRFTISRDNAKNTVYLQMNSLKPEDTAVYYCAASHYHGYSLGYDYWGQGTQVTVSS”: the “polyreactivity (PSR sort gate)” value is “high polyreactivity”.

As for “QVQLVESGGGLVQAGGSLRLSCAASGRTFYYYAMGWYRQAPGKERELVATITSSGGSTYYADSVKGRFTISRDNAKNTVYLQINSLIPEDTAVYYCARTYTYKGGNTHSRWYYYWGQGTHVTVSS”, the “polyreactivity (PSR sort gate)” value is “high polyreactivity”.

For the sequence “QVQLVESGGGLVQAGGSLRLSCAASGRTFYYYAMGWYRQAPGKEWELVAAIRGGGGSTYADSVKGRFTISRDNAKNTVYLQMNSLKPEDTAVYYCNVVRTGRYPGFLTFDYWGQGTQVTVSS”, the “polyreactivity (PSR sort gate)” value is reported as “high polyreactivity”.

In the case of “QVQLVESGGGLVQAGGSLRLSCAASGRTFYYYAMGWYRQAPGTERELLAAISWSVGRTYYADSVKGRFTISRDNAKNTVYLQMNSLKPEDTAVYFCNAEPPRGYTVSSGREMVYWGQGTQVTGSS”, the “polyreactivity (PSR sort gate)” value is recorded as “low polyreactivity”.

For “QVQLVESGGGLVQAGGSLRLSCAASGRTFYYYARGWYRQAPGKERELVAAISSRGGSTYYADSVKGRFTISRDNAKNTVYLQMNSLKPEDTAVYYCAAERYFVLYRYYSYAYYYWGQGTQVTVSS”, the “polyreactivity (PSR sort gate)” value is “high polyreactivity”.

“QVQLVESGGGLVQAGGSLRLSCAASGRTFYYYSMGWYIQAPGKEREFVAAISYRGGSTYYADSVKGRFTITRDNAKNTVYFQMNSLNPEDTAVYYCAAGLVYLFISHNDYWGQGTQVTVSS”: the “polyreactivity (PSR sort gate)” value was “low polyreactivity”.

“QVQLVESGGGLVQAGGSLRLSCAASGRTFYYYTRGWYRQAPGKERELVAAISRRGGRTYYADSVKGRFTISRDNAKNTVYLQMNSLKPEDTAVYNCAKETPHCPGLGGYDYWGQGTQVTVSS”: the “polyreactivity (PSR sort gate)” value is reported as “high polyreactivity”.

As for “QVQLVESGGGLVQAGGSLRLSCAASGRTFYYYVKGWDRQAPGKERELVAAITIRGGSTYYADSVKGRFTNSRDNAKNTVYLQMNSLKPEDTAVYYCNARGGSSTYGNYYWGQGTQVTVSS”, the “polyreactivity (PSR sort gate)” value is “low polyreactivity”.

With “QVQLVESGGGLVQAGGSLRLSCAASGRTFYYYVMGWYIQAPGKERELVAAITLRGGSTYYADSVKGRFTISRDNAKNTVYLQMNSLKPEDTAVYYCNARGGSSTYGNYYWGQGTQVTVSS”, the “polyreactivity (PSR sort gate)” value is “low polyreactivity”.

In the case of “QVQLVESGGGLVQAGGSLRLSCAASGRTIDHYAMGWYRQAPGKERELVAAISTTGGSTYYADSVKGRFTISRDNAKNTVYLQMNSLKPEDTAVYYCAAQLGWWGSGYWGQGTQVTVSS”, the “polyreactivity (PSR sort gate)” value was “high polyreactivity”.

Consider “QVQLVESGGGLVQAGGSLRLSCAASGRTIDSYAMGRNRQAPGKERELVAAISWGGGSTYYADSVKGRFTISRDNAKNTVYLQMNSLKPEDTAVYYCAARWNYTEFDYWGQGTQVTVSS”, for which the “polyreactivity (PSR sort gate)” value is “low polyreactivity”.

Turning to “QVQLVESGGGLVQAGGSLRLSCAASGRTIGLNGMGWYRQAPGKERELVAGISLSGGSTNYADSVKGRFTISRDNAKNTVYLQMNSLKPEDTAVYYCAADFVYYVVNDFGWSYAYEYWGQGTQVTVSS”, the “polyreactivity (PSR sort gate)” value is given as “low polyreactivity”.

Take “QVQLVESGGGLVQAGGSLRLSCAASGRTIGVYAMGWYRQAPGKERELVAGITTSGDSTYYADSVKGRFTISRDNAKNTVYLQMNSLKPEDTAVYYCNADVLFFYTPTSEYDYWGQGTQVTVSS”: the “polyreactivity (PSR sort gate)” value was “low polyreactivity”.

With “QVQLVESGGGLVQAGGSLRLSCAASGRTIGWYTMGWYRQERGKERELVAAISGRGGSTTYADSVKGRFTISRDNAKNTVYLQMNSLKPEDTAVYYCAKRRVRGTTRRYGYWGQGTQVTVSS”, the “polyreactivity (PSR sort gate)” value is listed as “high polyreactivity”.

With “QVQLVESGGGLVQAGGSLRLSCAASGRTIGYYAMGWYRQAPGKERELVAAITWSGGNTYYADSVKGRFTISRDNAKNTVYLQMNSLKPEDTAVYYCNALYLWGMDYWGQGTQVTVSS”, the “polyreactivity (PSR sort gate)” value is given as “low polyreactivity”.

For “QVQLVESGGGLVQAGGSLRLSCAASGRTILGNAMGWYRQAPGKEREFVATISKTGGSTYYADSVKGRFTISRDNAKNTVYLQMISLKPEDTAVYYCAVEIVSYVYGWLVDYDYWGQGTQVTVSS”, the “polyreactivity (PSR sort gate)” value is on record as “low polyreactivity”.

“QVQLVESGGGLVQAGGSLRLSCAASGRTIPIYAMGWYRQAPGKERELVAAITRGGRTNYADSVKGRFTISRDNAKNTVYLQMNSLKPEDTAVYYCAARTYGTYLYAEYDYWGQGTQVTVSS”: the “polyreactivity (PSR sort gate)” value is recorded as “high polyreactivity”.

With “QVQLVESGGGLVQAGGSLRLSCAASGRTIRGNARGWYIQAPGKERELVAVNTASGSTTYADSVKGRFTISRDNAKNTVYLQMNSLKSEDTAVYYCAKYVPWYTLWLGGTDRDYWGQGTQVTVSS”, the “polyreactivity (PSR sort gate)” value is “low polyreactivity”.

On to “QVQLVESGGGLVQAGGSLRLSCAASGRTIRHNAMGWYRQARGKERELVAAISRSGGSTYYADSVKGRFTISRDNAKNTVYLQMNSLKPEDTAVYYCAAGYHIIYTPEYYYWGQGTQVTVSS”, for which the “polyreactivity (PSR sort gate)” value was “high polyreactivity”.

For “QVQLVESGGGLVQAGGSLRLSCAASGRTIRRNARGWYRQAPGKERELVAGISGSGTITYADSVKGRVTISRDNAKNTVYLQMNSLKPEDTAVYYCAARRKSFYTFYYWGQGTKVTVSS”, the “polyreactivity (PSR sort gate)” value is on record as “high polyreactivity”.

As to “QVQLVESGGGLVQAGGSLRLSCAASGRTIRSYAMGWYSPAPGKERELVAAITGSGGRTYYADSVKGRFTISRDNATNTVYLQMNSLKPEDTAVYYCAARLRGSYDYWGQGTQVTVSS”, the “polyreactivity (PSR sort gate)” value is recorded as “high polyreactivity”.

“QVQLVESGGGLVQAGGSLRLSCAASGRTIRWYAMGWYRQAPGKERELVAAITWIGGSTYYADSVKGRFTISRDNAKNTVYLQMNSLQPEDTAVYYCATDKDDVSDLGKDYAYFEYDYWGQGTQVTVSS”: the “polyreactivity (PSR sort gate)” value is “low polyreactivity”.

“QVQLVESGGGLVQAGGSLRLSCAASGRTISFYAMGWYRQAPGKERELVAAISRSGGSTYYADSVKGRFTISRDNAKNTVYLQMNSLKPEDTAVYYCAARDQYRWYKYDYWGQGTQVTVSS”: the “polyreactivity (PSR sort gate)” value was “high polyreactivity”.

As for “QVQLVESGGGLVQAGGSLRLSCAASGRTISYYAMGWYRQAPGKERELVAAITSSGSRTYYADSVKGRFTISRDNAKNTVYLQMNSLKPEDTAVYYCAAGKPYFRYDSWGQGTQVTVSS”, the “polyreactivity (PSR sort gate)” value was “high polyreactivity”.

Turning to “QVQLVESGGGLVQAGGSLRLSCAASGRTITKYVMGWYRHAPGKERELVAAITSSGSSTYYADSVKGRFTISRDNAKNTVYLQMNSLKPEDTAVYYCAARRGAPFARQYDYWGQGTQVTVSS”, the “polyreactivity (PSR sort gate)” value is reported as “high polyreactivity”.

For the sequence “QVQLVESGGGLVQAGGSLRLSCAASGRTITYYAMGWYRQAPGKERELVAAISSAGRTNYAVSVKGRFTISRDNAKNTVYLQMNCLKPEDTAVYYCAKRYGWASGYWNSNYGYLYDYWGQGTLVTVSS”, the “polyreactivity (PSR sort gate)” value is reported as “high polyreactivity”.

In the case of “QVQLVESGGGLVQAGGSLRLSCAASGRTIVYNAMGWYRQAPGKESELVAAITSGGRTYYADSVKGRFTISRDNAKNTVYLQMNSVKPEDTAVYYCATDYYGPDYPLDYWGQGTQVTVSS”, the “polyreactivity (PSR sort gate)” value was “low polyreactivity”.

As for “QVQLVESGGGLVQAGGSLRLSCAASGRTIWVYAMGWYRQAPGKERELVAAIRWSAGTTYYADSVKGRFTISRDNAKNTVYLQMNSLKPEDTAVYYCAADASSRYGVLEVDYWGQGTQVTVSS”, the “polyreactivity (PSR sort gate)” value was “high polyreactivity”.

Regarding “QVQLVESGGGLVQAGGSLRLSCAASGRTIWYYAKGWYRQAPGKERELVAAITRGGRTNYADSVKGRFTISRDNAKNTVDLQMNSLKPEDTAVYYCAADYRDPAHSYGYWGQGTQVTVSS”, the “polyreactivity (PSR sort gate)” value was “high polyreactivity”.

Take “QVQLVESGGGLVQAGGSLRLSCAASGRTIWYYAMGWYRQAPGNERELVASITRSGGSTYADSVQGRFPISRDNAKNTVYLQMNSLKPQDTAVYYCAVGAVVPGLRRRTYYYWGQGTQVTVSS”: the “polyreactivity (PSR sort gate)” value is listed as “high polyreactivity”.

Regarding “QVQLVESGGGLVQAGGSLRLSCAASGRTIYSNAMGWYRQPPGKERELVAAITGSSGSTYYADSVKGRFTISRDNAKNTVYLQMNSLKPEDTAVYYCAASCYCSLVRQLRLRGQGTQVTVSS”, the “polyreactivity (PSR sort gate)” value is “low polyreactivity”.

“QVQLVESGGGLVQAGGSLRLSCAASGRTIYYYVMGWYRQAPGKERQLVAAISASGGSTRYADSVKGRFTISRDNAKNTVYLQMNSLKPEDTAVYYCAASRRYGGYRFDYWGQGTQVTVSS”: the “polyreactivity (PSR sort gate)” value is “high polyreactivity”.

As for “QVQLVESGGGLVQAGGSLRLSCAASGRTLAFYAMGWYRQAPGKERELVAAITRGGGTYYADSVKGRFTISRDNAKNTVDLQMNSLIPEDTAVYYCNADSGFRWGAFDYWGQGTQLTVSS”, the “polyreactivity (PSR sort gate)” value is listed as “low polyreactivity”.

Turning to “QVQLVESGGGLVQAGGSLRLSCAASGRTLAPNAMGWYRQAPGKERELVSTITRGGTTNYADSVKGRFTISRDNAKNTVYLQMNSLKPEDTAVYYCAKAHYLGYYQRYDYWGQGTQVTVSS”, the “polyreactivity (PSR sort gate)” value is recorded as “low polyreactivity”.

In the case of “QVQLVESGGGLVQAGGSLRLSCAASGRTLDGNDMGWYRQPPGKERELVAAITVTGSSTYYADSVKGRFTISRDNAKNTVYLQMNSLKPEDTAVYYCAKASGGDVRYSYSYRMDYWGQGTQVTVSS”, the “polyreactivity (PSR sort gate)” value is listed as “low polyreactivity”.

Turning to “QVQLVESGGGLVQAGGSLRLSCAASGRTLDHYAMGWYRQAPGKERELVAAITSSGGSTYYADSVKGRFTISRDNAKNTVYLQMNSLKPEETAVSYCAADVSSQREWIIEHDYWGQGTQVTVSS”, the “polyreactivity (PSR sort gate)” value is on record as “low polyreactivity”.
